Assay results reported in patent US20180099041A1.

Assays:
[1] = target: gp160 clone 108051_005 Q655R (HIV-1)
[2] = target: gp160 clone 108069_005 Q655R (HIV-1)
[3] = target: 108060_022 Q655R (HIV-1)
[4] = target: 108060_024 R655Q (HIV-1)

Row | Substance | IC50 (neutralization of pseudovirus infection) [1] [mg/L] | IC50 (neutralization of pseudovirus infection) [2] [mg/L] | IC50 (neutralization of pseudovirus infection) [3] [mg/L] | IC50 (neutralization of pseudovirus infection) [4] [mg/L]
1 | CD4-IgG (from UniProt P01730) (Fc fusion) | 5.21 | 1.08 | 0.161 | > 20
2 | broadly neutralizing monoclonal antibody 2F5 | 0.343 | 0.052 | 0.093 | 3.43
3 | broadly neutralizing monoclonal antibody 4E10 | 1.31 | 0.044 | 0.156 | 6.55
4 | broadly neutralizing, CD4 blocking monoclonal antibody b12 | > 20 | > 20 | > 20 | > 20
5 | enfuvirtide (peptide) | 0.036 | 0.011 | 0.004 | 0.13
6 | monoclonal antibody 2G12 | > 20 | > 20 | > 20 | > 20
